Data from patent US20200087347 (published 2020).
Read-outs that look alike come from different tables or passages of the source. Side-chain parts run from the residue outwards. [ ]: non-standard residue; d: D form. dNMeF = CN[C@H](Cc1ccccc1)C(=O)O; NMeK = CN[C@@H](CCCCN)C(=O)O; Ahx = NCCCCCC(=O)O; BDPFL = dye

T1: integrin αvβ8 (human, UniProt P06756)
T1 chain 1: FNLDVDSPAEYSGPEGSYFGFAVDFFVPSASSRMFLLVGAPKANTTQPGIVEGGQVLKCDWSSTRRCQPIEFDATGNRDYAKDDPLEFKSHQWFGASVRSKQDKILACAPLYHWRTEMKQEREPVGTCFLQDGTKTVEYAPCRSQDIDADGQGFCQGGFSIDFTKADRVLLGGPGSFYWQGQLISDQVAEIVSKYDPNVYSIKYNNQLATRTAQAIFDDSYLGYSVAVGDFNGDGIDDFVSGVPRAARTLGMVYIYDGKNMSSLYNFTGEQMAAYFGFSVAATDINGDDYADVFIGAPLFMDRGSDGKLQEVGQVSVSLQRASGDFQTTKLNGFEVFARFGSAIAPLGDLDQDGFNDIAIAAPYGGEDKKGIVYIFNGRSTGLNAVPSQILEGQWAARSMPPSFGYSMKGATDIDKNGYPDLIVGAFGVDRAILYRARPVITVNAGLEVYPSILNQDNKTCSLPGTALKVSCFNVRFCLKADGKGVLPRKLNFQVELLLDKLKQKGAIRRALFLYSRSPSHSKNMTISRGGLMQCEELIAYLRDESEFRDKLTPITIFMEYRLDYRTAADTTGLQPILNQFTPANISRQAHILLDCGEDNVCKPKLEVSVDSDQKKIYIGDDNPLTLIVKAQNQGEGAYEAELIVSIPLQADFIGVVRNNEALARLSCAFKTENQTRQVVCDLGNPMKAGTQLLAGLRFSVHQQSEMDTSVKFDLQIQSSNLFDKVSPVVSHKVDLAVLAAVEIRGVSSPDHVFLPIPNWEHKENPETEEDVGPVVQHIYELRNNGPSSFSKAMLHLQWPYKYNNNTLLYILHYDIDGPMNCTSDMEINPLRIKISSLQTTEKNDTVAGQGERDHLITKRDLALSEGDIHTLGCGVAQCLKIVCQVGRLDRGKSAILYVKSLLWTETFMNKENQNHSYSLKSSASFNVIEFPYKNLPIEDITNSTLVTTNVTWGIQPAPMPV
T1 chain 2: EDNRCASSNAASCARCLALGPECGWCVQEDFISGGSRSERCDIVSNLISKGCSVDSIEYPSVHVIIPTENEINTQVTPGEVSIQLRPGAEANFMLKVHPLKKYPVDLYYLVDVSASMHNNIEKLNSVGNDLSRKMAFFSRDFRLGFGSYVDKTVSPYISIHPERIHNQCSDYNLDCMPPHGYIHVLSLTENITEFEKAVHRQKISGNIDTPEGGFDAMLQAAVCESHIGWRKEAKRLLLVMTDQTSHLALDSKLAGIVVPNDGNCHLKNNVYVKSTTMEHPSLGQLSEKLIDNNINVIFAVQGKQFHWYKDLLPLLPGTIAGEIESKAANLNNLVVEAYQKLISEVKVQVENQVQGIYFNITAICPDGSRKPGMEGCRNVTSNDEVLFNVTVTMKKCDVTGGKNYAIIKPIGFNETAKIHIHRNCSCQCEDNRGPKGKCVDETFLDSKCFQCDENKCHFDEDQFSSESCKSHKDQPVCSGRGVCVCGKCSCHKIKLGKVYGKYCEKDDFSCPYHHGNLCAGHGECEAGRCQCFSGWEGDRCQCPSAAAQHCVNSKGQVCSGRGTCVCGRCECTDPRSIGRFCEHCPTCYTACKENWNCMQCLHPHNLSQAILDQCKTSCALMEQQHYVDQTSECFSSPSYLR

T2: integrin αvβ6 (human, UniProt P06756)
T2 chain 1: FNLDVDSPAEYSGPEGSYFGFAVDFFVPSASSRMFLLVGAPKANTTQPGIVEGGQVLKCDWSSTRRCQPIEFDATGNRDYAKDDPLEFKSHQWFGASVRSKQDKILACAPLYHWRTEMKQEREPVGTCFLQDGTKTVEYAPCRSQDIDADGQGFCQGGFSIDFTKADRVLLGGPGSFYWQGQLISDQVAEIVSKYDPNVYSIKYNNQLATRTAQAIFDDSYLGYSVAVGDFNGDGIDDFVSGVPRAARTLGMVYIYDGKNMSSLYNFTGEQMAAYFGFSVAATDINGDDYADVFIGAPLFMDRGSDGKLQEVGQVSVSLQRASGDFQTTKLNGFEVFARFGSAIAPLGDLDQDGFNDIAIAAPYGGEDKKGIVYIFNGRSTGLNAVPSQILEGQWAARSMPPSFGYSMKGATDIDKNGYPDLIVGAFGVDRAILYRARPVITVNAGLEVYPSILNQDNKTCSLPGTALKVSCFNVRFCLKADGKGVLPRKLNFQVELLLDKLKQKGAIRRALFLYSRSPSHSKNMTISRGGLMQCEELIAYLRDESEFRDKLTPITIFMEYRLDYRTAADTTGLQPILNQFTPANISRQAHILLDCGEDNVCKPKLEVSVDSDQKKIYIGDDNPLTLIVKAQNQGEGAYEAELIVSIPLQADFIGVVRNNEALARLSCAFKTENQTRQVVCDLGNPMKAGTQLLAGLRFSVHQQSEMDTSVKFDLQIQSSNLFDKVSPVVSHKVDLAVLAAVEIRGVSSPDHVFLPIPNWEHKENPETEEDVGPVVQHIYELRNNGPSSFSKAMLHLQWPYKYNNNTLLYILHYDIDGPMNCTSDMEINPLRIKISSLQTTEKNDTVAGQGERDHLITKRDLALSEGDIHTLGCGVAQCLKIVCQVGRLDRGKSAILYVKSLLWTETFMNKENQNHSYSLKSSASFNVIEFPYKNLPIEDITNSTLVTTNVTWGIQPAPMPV
T2 chain 2: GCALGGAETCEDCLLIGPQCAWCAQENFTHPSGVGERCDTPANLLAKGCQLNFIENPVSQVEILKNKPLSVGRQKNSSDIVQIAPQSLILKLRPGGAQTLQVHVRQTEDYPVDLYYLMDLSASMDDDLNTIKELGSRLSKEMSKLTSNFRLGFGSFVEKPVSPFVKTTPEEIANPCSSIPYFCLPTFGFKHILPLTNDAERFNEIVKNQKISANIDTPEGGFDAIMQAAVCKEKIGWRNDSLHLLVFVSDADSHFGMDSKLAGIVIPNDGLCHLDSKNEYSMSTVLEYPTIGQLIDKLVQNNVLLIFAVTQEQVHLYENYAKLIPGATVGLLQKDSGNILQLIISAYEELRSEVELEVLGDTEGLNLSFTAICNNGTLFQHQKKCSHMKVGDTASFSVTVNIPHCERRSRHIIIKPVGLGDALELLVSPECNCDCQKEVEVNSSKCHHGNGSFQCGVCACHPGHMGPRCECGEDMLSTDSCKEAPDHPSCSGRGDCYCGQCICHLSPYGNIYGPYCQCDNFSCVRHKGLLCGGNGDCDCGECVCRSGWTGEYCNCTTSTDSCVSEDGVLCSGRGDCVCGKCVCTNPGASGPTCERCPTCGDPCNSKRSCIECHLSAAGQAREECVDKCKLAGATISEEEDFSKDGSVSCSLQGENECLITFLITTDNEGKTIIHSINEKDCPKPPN

T3: integrin αvβ3 (human, UniProt P06756)
T3 chain 1: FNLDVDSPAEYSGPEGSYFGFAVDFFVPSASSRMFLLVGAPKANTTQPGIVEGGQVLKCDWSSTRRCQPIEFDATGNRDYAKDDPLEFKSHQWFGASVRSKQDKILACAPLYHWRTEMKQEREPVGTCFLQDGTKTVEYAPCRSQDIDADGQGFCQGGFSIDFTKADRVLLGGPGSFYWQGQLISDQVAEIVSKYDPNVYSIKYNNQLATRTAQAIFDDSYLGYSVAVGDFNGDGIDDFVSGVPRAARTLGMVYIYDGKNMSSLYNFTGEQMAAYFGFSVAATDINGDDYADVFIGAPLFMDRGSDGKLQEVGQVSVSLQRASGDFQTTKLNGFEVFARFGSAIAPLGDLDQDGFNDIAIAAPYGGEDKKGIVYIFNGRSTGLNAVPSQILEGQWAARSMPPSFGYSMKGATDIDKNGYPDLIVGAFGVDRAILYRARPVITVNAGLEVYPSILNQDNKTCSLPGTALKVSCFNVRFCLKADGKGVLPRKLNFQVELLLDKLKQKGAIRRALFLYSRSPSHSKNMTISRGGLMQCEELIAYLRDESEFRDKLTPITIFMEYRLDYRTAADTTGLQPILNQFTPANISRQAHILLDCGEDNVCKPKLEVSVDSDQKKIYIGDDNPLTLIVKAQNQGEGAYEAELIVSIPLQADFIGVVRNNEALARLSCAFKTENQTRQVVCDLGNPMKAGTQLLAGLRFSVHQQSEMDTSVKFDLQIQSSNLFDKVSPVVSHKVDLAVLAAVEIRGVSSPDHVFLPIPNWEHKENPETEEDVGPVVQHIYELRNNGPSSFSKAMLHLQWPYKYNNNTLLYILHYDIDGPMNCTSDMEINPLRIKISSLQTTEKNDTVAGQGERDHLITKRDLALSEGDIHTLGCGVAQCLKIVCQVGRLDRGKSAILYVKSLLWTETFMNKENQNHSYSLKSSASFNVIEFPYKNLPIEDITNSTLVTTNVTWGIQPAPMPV
T3 chain 2: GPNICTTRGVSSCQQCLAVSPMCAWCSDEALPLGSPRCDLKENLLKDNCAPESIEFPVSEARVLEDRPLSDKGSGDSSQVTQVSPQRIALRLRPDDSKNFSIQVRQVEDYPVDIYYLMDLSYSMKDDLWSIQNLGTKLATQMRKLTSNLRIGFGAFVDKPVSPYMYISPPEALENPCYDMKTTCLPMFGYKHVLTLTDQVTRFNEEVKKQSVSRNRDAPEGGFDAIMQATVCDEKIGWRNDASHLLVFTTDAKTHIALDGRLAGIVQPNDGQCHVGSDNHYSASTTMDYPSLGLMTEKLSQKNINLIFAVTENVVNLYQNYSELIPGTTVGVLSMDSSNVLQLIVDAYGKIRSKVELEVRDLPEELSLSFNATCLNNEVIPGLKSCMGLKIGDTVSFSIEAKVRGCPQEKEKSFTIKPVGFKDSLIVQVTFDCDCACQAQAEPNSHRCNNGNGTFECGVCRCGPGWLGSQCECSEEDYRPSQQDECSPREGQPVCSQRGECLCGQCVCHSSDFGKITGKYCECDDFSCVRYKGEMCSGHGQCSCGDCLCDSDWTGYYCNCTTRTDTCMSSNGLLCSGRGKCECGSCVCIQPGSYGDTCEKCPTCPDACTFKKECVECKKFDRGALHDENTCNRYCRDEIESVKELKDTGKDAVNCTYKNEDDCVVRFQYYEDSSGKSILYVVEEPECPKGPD


Experiments:
Assay in all cases: competition
[1] = target: T1, integrin αvβ8
[2] = target: T2, integrin αvβ6
[3] = target: T1, integrin αvβ8
[4] = target: T2, integrin αvβ6
[5] = target: T3, integrin αvβ3

IC50 [1] [nM] | IC50 [2] [nM] | IC50 [3] [nM] | IC50 [4] [nM] | IC50 [5] [nM] | Binder
1.83 | 81 | – | – | – | cyclo(RGDL[dP]PAF) [Compound 13 (Table 1)]
9.4 | 139 | – | – | – | cyclo(RGDL[dNMeF]PAL) (SMILES CC(C)C[C@@H]1NC(=O)[C@H](C)NC(=O)[C@@H]2CCCN2C(=O)[C@@H](Cc2ccccc2)N(C)C(=O)[C@H](CC(C)C)NC(=O)[C@H](CC(=O)O)NC(=O)CNC(=O)[C@H](CCCNC(=N)N)NC1=O) [Compound 6]
1.4 | 84 | – | – | – | cyclo(RGDL[dP]PAL) (SMILES CC(C)C[C@@H]1NC(=O)[C@H](C)NC(=O)[C@@H]2CCCN2C(=O)[C@H]2CCCN2C(=O)[C@H](CC(C)C)NC(=O)[C@H](CC(=O)O)NC(=O)CNC(=O)[C@H](CCCNC(=N)N)NC1=O) [Compound 1]
12.5 | 187 | – | – | – | cyclo(RGDL[dP]PSL) (SMILES CC(C)C[C@@H]1NC(=O)[C@H](CO)NC(=O)[C@@H]2CCCN2C(=O)[C@H]2CCCN2C(=O)[C@H](CC(C)C)NC(=O)[C@H](CC(=O)O)NC(=O)CNC(=O)[C@H](CCCNC(=N)N)NC1=O) [Compound 3]
– | – | 1120 | > 10000 | > 10000 | cyclo(GLRVDL[dP][NMeK]([Ahx-BDPFL])) [Compound 11 (Table 3) c(GLRVDLp(NMe)K)-Ahx-BDPFL]
8.1 | 114 | – | – | – | cyclo(RGDL[dP]PAA) (SMILES CC(C)C[C@@H]1NC(=O)[C@H](CC(=O)O)NC(=O)CNC(=O)[C@H](CCCNC(=N)N)NC(=O)[C@H](C)NC(=O)[C@H](C)NC(=O)[C@@H]2CCCN2C(=O)[C@H]2CCCN2C1=O) [Compound 10 (Table 1)]
1.1 | 156 | – | – | – | cyclo(RGDL[dP]PAY) (SMILES CC(C)C[C@@H]1NC(=O)[C@H](CC(=O)O)NC(=O)CNC(=O)[C@H](CCCNC(=N)N)NC(=O)[C@H](Cc2ccc(O)cc2)NC(=O)[C@H](C)NC(=O)[C@@H]2CCCN2C(=O)[C@H]2CCCN2C1=O) [Compound 4]
